# Measurements reported in PMC9124243.
# Read-outs that look alike come from different tables or passages of the source.
# How the values were obtained:
# [1] = molecular target: Mycobacterium tuberculosis DnaK, wild-type, full-length (M. tuberculosis) (UniProt P9WMJ9)
# [2] = molecular target: Mycobacterium tuberculosis DnaK, wild-type, full-length (M. tuberculosis) (UniProt P9WMJ9); remark: listed apart in the source
substance,measurement,setting,value
Pz-Val-Val-Pro-Leu-OH (2) (peptide),IC50 in DnaK-DnaJ2-GrpE ATPase dose-response assay,[1],192 µM
Pz-Val-Val-Pro-photoLeu-OMe (7) (peptide),IC50 in DnaK-DnaJ2-GrpE ATPase dose-response assay,[2],52.5 µM
